From the array DNA melting data of Ke et al.

Experiment: melting temperature; melt of duplexes
Settings: sodium 0.0675 M; strand 1 µM

Row | Substance | Tm
1 | CGACGTGCCGAATGTGCTG+CAGCACATGGGGCACGTCG (((((((((..((((((((+))))))))..))))))))) | 56.8 °C
2 | CGACGTGCACCATGTGCTG+CAGCACATGTTGCACGTCG (((((((((.(((((((((+))))))))).))))))))) | 55 °C
3 | CGACGTGCAAGATGTGCTG+CAGCACATGTTGCACGTCG ((((((((((.((((((((+)))))))).)))))))))) | 57.8 °C
4 | CGACGTGCGCTATGTGCTG+CAGCACATCGGGCACGTCG ((((((((.(.((((((((+)))))))).).)))))))) | 52 °C
5 | CGACGTGCGGCATGTGCTG+CAGCACATATCGCACGTCG (((((((((..((((((((+))))))))..))))))))) | 54.7 °C
6 | CGACGTGCTTCATGTGCTG+CAGCACATACTGCACGTCG ((((((((...((((((((+))))))))...)))))))) | 48.3 °C
7 | CGACGTGCTGCATGTGCTG+CAGCACATGGGGCACGTCG ((((((((..(((((((((+)))))))))..)))))))) | 57 °C
8 | CGACGTGCGTCATGTGCTG+CAGCACATGATGCACGTCG ((((((((.((((((((((+)))))))))).)))))))) | 61.1 °C
9 | CGACGTGCCGCATGTGCTG+CAGCACATCTGGCACGTCG (((((((((..((((((((+))))))))..))))))))) | 54.2 °C
10 | CGACGTGCGGCATGTGCTG+CAGCACATACCGCACGTCG ((((((((((.((((((((+)))))))).)))))))))) | 60 °C
11 | CGACGTGCACGATGTGCTG+CAGCACATACGGCACGTCG ((((((((...((((((((+))))))))...)))))))) | 48.2 °C
12 | CGACGTGCCAAATGTGCTG+CAGCACATGGAGCACGTCG ((((((((...((((((((+))))))))...)))))))) | 52.4 °C
13 | CGACGTGCCTTATGTGCTG+CAGCACATTGTGCACGTCG ((((((((...((((((((+))))))))...)))))))) | 45.7 °C
14 | CGACGTGCAGCATGTGCTG+CAGCACATATGGCACGTCG ((((((((...((((((((+))))))))...)))))))) | 46.7 °C
15 | CGACGTGCATTATGTGCTG+CAGCACATGTTGCACGTCG (((((((((..((((((((+))))))))..))))))))) | 52.2 °C
16 | CGACGTGCTTCATGTGCTG+CAGCACATGGAGCACGTCG (((((((((.(((((((((+))))))))).))))))))) | 60 °C
17 | CGACGTGCTTTATGTGCTG+CAGCACATAATGCACGTCG ((((((((.((((((((((+)))))))))).)))))))) | 55.1 °C
18 | CGACGTGCCTCATGTGCTG+CAGCACATACGGCACGTCG (((((((((..((((((((+))))))))..))))))))) | 52.4 °C
19 | CGACGTGCTAAATGTGCTG+CAGCACATCGAGCACGTCG (((((((((..((((((((+))))))))..))))))))) | 51.8 °C
20 | CGACGTGCTCAATGTGCTG+CAGCACATGCCGCACGTCG ((((((((...((((((((+))))))))...)))))))) | 49 °C
21 | CGACGTGCGGAATGTGCTG+CAGCACATGTAGCACGTCG ((((((((...((((((((+))))))))...)))))))) | 60.4 °C
22 | CGACGTGCCTAATGTGCTG+CAGCACATGGCGCACGTCG ((((((((...((((((((+))))))))...)))))))) | 51.1 °C
23 | CGACGTGCGCAATGTGCTG+CAGCACATTCAGCACGTCG ((((((((..(((((((((+)))))))))..)))))))) | 53.1 °C
24 | CGACGTGCACCATGTGCTG+CAGCACATAGCGCACGTCG ((((((((.(.((((((((+)))))))).).)))))))) | 46.1 °C

Row | Substance | Tm
25 | CGACGTGCGACATGTGCTG+CAGCACATTTAGCACGTCG ((((((((.(.((((((((+)))))))).).)))))))) | 52.2 °C
26 | CGACGTGCCGGATGTGCTG+CAGCACATCTGGCACGTCG (((((((((.(((((((((+))))))))).))))))))) | 62.7 °C
27 | CGACGTGCTTTATGTGCTG+CAGCACATCTCGCACGTCG ((((((((...((((((((+))))))))...)))))))) | 46.5 °C
28 | CGACGTGCCTCATGTGCTG+CAGCACATGGGGCACGTCG (((((((((.(((((((((+))))))))).))))))))) | 61.2 °C
29 | CGACGTGCACAATGTGCTG+CAGCACATCTAGCACGTCG ((((((((...((((((((+))))))))...)))))))) | 45.9 °C
30 | CGACGTGCGATATGTGCTG+CAGCACATGAAGCACGTCG ((((((((...((((((((+))))))))...)))))))) | 56.1 °C
31 | CGACGTGCTTCATGTGCTG+CAGCACATCTAGCACGTCG (((((((((..((((((((+))))))))..))))))))) | 50.3 °C
32 | CGACGTGCGCAATGTGCTG+CAGCACATCTCGCACGTCG (((((((((..((((((((+))))))))..))))))))) | 52.8 °C
33 | CGACGTGCTAGATGTGCTG+CAGCACATGCGGCACGTCG ((((((((...((((((((+))))))))...)))))))) | 50.3 °C
34 | CGACGTGCCCAATGTGCTG+CAGCACATCTAGCACGTCG ((((((((...((((((((+))))))))...)))))))) | 48.8 °C
35 | CGACGTGCGTTATGTGCTG+CAGCACATTTGGCACGTCG ((((((((...((((((((+))))))))...)))))))) | 49.4 °C
36 | CGACGTGCAAGATGTGCTG+CAGCACATGGGGCACGTCG ((((((((...((((((((+))))))))...)))))))) | 50.8 °C
37 | CGACGTGCTGGATGTGCTG+CAGCACATGCAGCACGTCG ((((((((((.((((((((+)))))))).)))))))))) | 61.3 °C
38 | CGACGTGCGAAATGTGCTG+CAGCACATAGTGCACGTCG ((((((((...((((((((+))))))))...)))))))) | 46 °C
39 | CGACGTGCGTCATGTGCTG+CAGCACATGAGGCACGTCG ((((((((.((((((((((+)))))))))).)))))))) | 60.7 °C
40 | CGACGTGCGGGATGTGCTG+CAGCACATGTAGCACGTCG ((((((((...((((((((+))))))))...)))))))) | 53.7 °C
41 | CGACGTGCAAGATGTGCTG+CAGCACATTCTGCACGTCG (((((((((..((((((((+))))))))..))))))))) | 53.2 °C
42 | CGACGTGCCACATGTGCTG+CAGCACATGCCGCACGTCG ((((((((..(((((((((+)))))))))..)))))))) | 52 °C
43 | CGACGTGCTCTATGTGCTG+CAGCACATTACGCACGTCG ((((((((...((((((((+))))))))...)))))))) | 47.8 °C
44 | CGACGTGCGGTATGTGCTG+CAGCACATGGGGCACGTCG ((((((((...((((((((+))))))))...)))))))) | 51.7 °C
45 | CGACGTGCGATATGTGCTG+CAGCACATGATGCACGTCG ((((((((...((((((((+))))))))...)))))))) | 53.8 °C
46 | CGACGTGCACCATGTGCTG+CAGCACATGTAGCACGTCG ((((((((..(((((((((+)))))))))..)))))))) | 50.9 °C
47 | CGACGTGCCATATGTGCTG+CAGCACATACTGCACGTCG ((((((((..(((((((((+)))))))))..)))))))) | 49.3 °C
48 | CGACGTGCGGGATGTGCTG+CAGCACATCCCGCACGTCG (((((((((((((((((((+))))))))))))))))))) | 67.7 °C

Row | Substance | Tm
49 | CGACGTGCTATATGTGCTG+CAGCACATGCGGCACGTCG ((((((((...((((((((+))))))))...)))))))) | 49.4 °C
50 | CGACGTGCCTAATGTGCTG+CAGCACATCTTGCACGTCG ((((((((...((((((((+))))))))...)))))))) | 48 °C
51 | CGACGTGCAAAATGTGCTG+CAGCACATCGAGCACGTCG ((((((((...((((((((+))))))))...)))))))) | 49.2 °C
52 | CGACGTGCGGCATGTGCTG+CAGCACATCAGGCACGTCG ((((((((...((((((((+))))))))...)))))))) | 51 °C
53 | CGACGTGCAGTATGTGCTG+CAGCACATGACGCACGTCG ((((((((...((((((((+))))))))...)))))))) | 49.1 °C
54 | CGACGTGCATCATGTGCTG+CAGCACATCTAGCACGTCG ((((((((...((((((((+))))))))...)))))))) | 47.3 °C
55 | CGACGTGCGACATGTGCTG+CAGCACATTCCGCACGTCG (((((((((..((((((((+))))))))..))))))))) | 53.6 °C
56 | CGACGTGCGTTATGTGCTG+CAGCACATGATGCACGTCG ((((((((.(.((((((((+)))))))).).)))))))) | 54.6 °C
57 | CGACGTGCAAGATGTGCTG+CAGCACATGGCGCACGTCG ((((((((...((((((((+))))))))...)))))))) | 51.3 °C
58 | CGACGTGCTCCATGTGCTG+CAGCACATTTCGCACGTCG ((((((((...((((((((+))))))))...)))))))) | 45.7 °C
59 | CGACGTGCTTTATGTGCTG+CAGCACATGAGGCACGTCG ((((((((.(.((((((((+)))))))).).)))))))) | 52.8 °C
60 | CGACGTGCCGTATGTGCTG+CAGCACATTGTGCACGTCG ((((((((...((((((((+))))))))...)))))))) | 45.5 °C
61 | CGACGTGCCGGATGTGCTG+CAGCACATAAAGCACGTCG ((((((((...((((((((+))))))))...)))))))) | 50.2 °C
62 | CGACGTGCGCCATGTGCTG+CAGCACATTTGGCACGTCG ((((((((...((((((((+))))))))...)))))))) | 47.4 °C
63 | CGACGTGCTATATGTGCTG+CAGCACATTACGCACGTCG ((((((((...((((((((+))))))))...)))))))) | 49.3 °C
64 | CGACGTGCTGGATGTGCTG+CAGCACATATGGCACGTCG ((((((((...((((((((+))))))))...)))))))) | 52.7 °C
65 | CGACGTGCCGTATGTGCTG+CAGCACATGGTGCACGTCG ((((((((...((((((((+))))))))...)))))))) | 46.6 °C
66 | CGACGTGCGACATGTGCTG+CAGCACATCCAGCACGTCG ((((((((...((((((((+))))))))...)))))))) | 50.4 °C
67 | CGACGTGCGCCATGTGCTG+CAGCACATTGAGCACGTCG ((((((((.(.((((((((+)))))))).).)))))))) | 52.6 °C
68 | CGACGTGCGAGATGTGCTG+CAGCACATATAGCACGTCG ((((((((.(.((((((((+)))))))).).)))))))) | 54.6 °C
69 | CGACGTGCGTGATGTGCTG+CAGCACATTGCGCACGTCG (((((((((..((((((((+))))))))..))))))))) | 58 °C
70 | CGACGTGCCTTATGTGCTG+CAGCACATTAAGCACGTCG ((((((((.(.((((((((+)))))))).).)))))))) | 49.8 °C
71 | CGACGTGCCTAATGTGCTG+CAGCACATTAAGCACGTCG ((((((((.((((((((((+)))))))))).)))))))) | 53.4 °C
72 | CGACGTGCTCAATGTGCTG+CAGCACATCAGGCACGTCG ((((((((...((((((((+))))))))...)))))))) | 50.5 °C
